In article PMC7527721, “Beyond Toxin Transport: Novel Role of ABC Transporter for Enzymatic Machinery of Cereulide NRPS Assembly Line” (mBio, 2020):

T1: CesD, transmembrane protein of the ABC transporter CesCD (BACTH fusion) (Bacillus cereus F4810/72, UniProt Q20CI6 1-268)
T1 construct: CesD, transmembrane protein of the ABC transporter CesCD, B. cereus F4810/72, NCBI ABK00530.1; also called T25-CesD; source: bacterial two-hybrid (BACTH) fusion, E. coli BTH101; not shown: T18 or T25 fragment of B. pertussis adenylate cyclase (several combinations tested), N-terminal or C-terminal, kept
T1 sequence: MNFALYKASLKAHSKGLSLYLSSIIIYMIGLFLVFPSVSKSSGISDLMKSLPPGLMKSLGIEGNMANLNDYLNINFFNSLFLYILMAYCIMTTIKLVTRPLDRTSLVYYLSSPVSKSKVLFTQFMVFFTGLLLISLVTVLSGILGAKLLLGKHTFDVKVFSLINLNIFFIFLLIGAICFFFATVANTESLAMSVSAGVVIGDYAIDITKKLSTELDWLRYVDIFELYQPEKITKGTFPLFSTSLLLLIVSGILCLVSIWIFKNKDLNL


What was measured:
[1] = target: C-terminal condensation domain C* of CesA (BACTH fusion) (Bacillus cereus F4810/72) (UniProt Q20CI9); experiment: two-hybrid; BACTH in E. coli BTH101, β-galactosidase activity (Miller assay, ONPG, 28°C) of cells from LB-IPTG plates, normalized to the negative control (T18 and T25 alone)
[2] = target: T1, CesD, transmembrane protein of the ABC …; experiment: as above; conditions: partners not purified

Row | Molecule | decrease in β-galactosidase activity against wild-type CesC [1] [%] | β-galactosidase activity, fold of the negative control [2] [fold]
1 | CesC K40M (BACTH fusion) (from UniProt Q20CI7 1-291) (natural protein) | 30 | –
2 | CesC, ATPase of the ABC transporter CesCD (BACTH fusion) (natural protein, also called T18-CesC; CesC-T18; source: bacterial two-hybrid (BACTH) fusion, E. coli BTH101; not shown: T18 or T25 fragment of B. pertussis adenylate cyclase (several combinations tested), N-terminal or C-terminal, kept) MIKIEGLTKEFGNGKGIFDVTFEVKQGEVFGFLGPNGAGKSTTIRHLMGFIKPSKGAATINGFDCWKEADQVKKRVGYLPGEIAFPEEMTAYDFIRLIAGMKGMSDLGRAEEFIEKFQLDMRVHIKKMSKGMKQKLAIVAAFLHDPDILILDEPSTGLDPLMQNILVDFILEEKKCGKTILISSHIFDEIKDTADTICIIKNGKIVESGDLKTLKSAQKRYLKAYFTQEVDVELLQRSNLQIEKVENLVATILIQQNINEIMRELMKYDLINVEIMEPEIKDIFIKHYENR | – | ~20
